Experimental data taken from patent publication US6942981.
Ends that are not written are not given here. * marks the point of attachment. Biotin = O=C1N[C@H]2[C@H](CS[C@H]2CCCCC(=O)*)N1

T1: GST-CASK PDZ domain fusion protein (mouse, UniProt O14936 485-575 (human entry))
T1 sequence: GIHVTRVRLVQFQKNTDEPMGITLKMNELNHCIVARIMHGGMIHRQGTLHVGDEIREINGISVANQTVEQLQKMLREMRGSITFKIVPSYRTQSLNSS

T2: GST-LIMK2 PDZ domain fusion protein (human, UniProt P53671 147-237)
T2 construct: also called human LIM domain kinase 2; not shown: glutathione S-transferase (GST) encoded by pGEX-3X
T2 sequence: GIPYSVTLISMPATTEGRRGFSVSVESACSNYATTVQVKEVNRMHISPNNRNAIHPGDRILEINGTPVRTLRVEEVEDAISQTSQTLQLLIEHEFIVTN

T3: GST-MPP2 PDZ domain fusion protein
T3 construct: also called maguk p55 subfamily member 2 (DLG2); MMP2; not shown: glutathione S-transferase (GST) encoded by pGEX-3X
T3 chain: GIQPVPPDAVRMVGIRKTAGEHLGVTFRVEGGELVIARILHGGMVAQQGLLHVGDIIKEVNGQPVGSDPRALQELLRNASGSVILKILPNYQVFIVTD

T4: GST-DVL1 PDZ domain fusion protein (human)
T4 construct: also called human dishevelled segment polarity protein homolog; not shown: glutathione S-transferase (GST) encoded by pGEX-3X
T4 chain: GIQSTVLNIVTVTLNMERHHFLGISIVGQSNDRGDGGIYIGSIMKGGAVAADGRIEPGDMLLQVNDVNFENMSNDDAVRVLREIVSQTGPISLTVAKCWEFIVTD

T5: GST-MINT3 PDZ domain fusion protein (human)
T5 construct: also called human MINT3; not shown: glutathione S-transferase (GST) encoded by pGEX-3X
T5 chain: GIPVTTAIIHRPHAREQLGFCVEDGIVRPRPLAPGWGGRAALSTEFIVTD

T6: GST-TAX2 PDZ domain fusion protein (human, UniProt O14908 129-216)
T6 construct: not shown: glutathione S-transferase (GST) encoded by pGEX-3X
T6 chain: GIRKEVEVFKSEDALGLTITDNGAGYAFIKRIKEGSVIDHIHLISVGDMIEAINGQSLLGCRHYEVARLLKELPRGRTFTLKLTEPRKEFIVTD

T7: GST-NeDLG PDZ domains 1-2 fusion protein (Mus musculus (Mouse), UniProt P70175 147-332)
T7 construct: also called NeDLG1; not shown: glutathione S-transferase (GST) encoded by pGEX-3X
T7 chain: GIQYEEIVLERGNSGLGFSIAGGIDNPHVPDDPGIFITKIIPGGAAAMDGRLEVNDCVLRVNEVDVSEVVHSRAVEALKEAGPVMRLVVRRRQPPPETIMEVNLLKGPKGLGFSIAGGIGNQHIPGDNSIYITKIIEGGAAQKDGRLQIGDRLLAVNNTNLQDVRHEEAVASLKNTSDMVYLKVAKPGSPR

T8: GST-SYN1a (alpha1-syntrophin) PDZ domain fusion protein (Homo sapiens (Human), UniProt Q13424 84-179)
T8 construct: also called SYN 1 α; not shown: glutathione S-transferase (GST) encoded by pGEX-3X
T8 sequence: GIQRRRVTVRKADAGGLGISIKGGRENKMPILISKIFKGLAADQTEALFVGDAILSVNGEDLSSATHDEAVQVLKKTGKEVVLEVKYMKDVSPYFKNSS

T9: GST-MPP1 PDZ domain fusion protein (Homo sapiens (Human), UniProt Q00013 67-152)
T9 construct: also called 55 Kd erythrocyte membrane protein; not shown: glutathione S-transferase (GST) encoded by pGEX-3X
T9 sequence: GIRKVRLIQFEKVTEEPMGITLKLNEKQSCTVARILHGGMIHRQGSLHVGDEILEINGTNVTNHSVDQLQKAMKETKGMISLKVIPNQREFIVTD


Legend:
[1] = target: T1, GST-CASK PDZ domain fusion protein; assay: A/G assays
[2] = target: T2, GST-LIMK2 PDZ domain fusion protein; assay: A/G assays
[3] = target: T3, GST-MPP2 PDZ domain fusion protein; assay: A/G assays
[4] = target: T4, GST-DVL1 PDZ domain fusion protein; assay: A/G assays
[5] = target: T5, GST-MINT3 PDZ domain fusion protein; assay: A/G assays
[6] = target: T6, GST-TAX2 PDZ domain fusion protein; assay: A/G assays
[7] = target: T7, GST-NeDLG PDZ domains 1-2 fusion protein; assay: A/G assays
[8] = target: T8, GST-SYN1a (alpha1-syntrophin) PDZ …; assay: A/G assays
[9] = target: T9, GST-MPP1 PDZ domain fusion protein; assay: A/G assays
[10] = target: T3, GST-MPP2 PDZ domain fusion protein; assay: A assay
[11] = target: T7, GST-NeDLG PDZ domains 1-2 fusion protein; assay: G assay

| Binder | binding result [1] | binding result [2] | binding result [3] | binding result [4] | binding result [5] | binding result [6] | binding result [7] | binding result [8] | binding result [9] | binding result [10] | binding result [11] |
| --- | --- | --- | --- | --- | --- | --- | --- | --- | --- | --- | --- |
| Biotin-PKQANGGAYQKPTKQEEFYA [CD138 (syndecan) C-terminal peptide AA18L] | no binding | no binding | no binding | no binding | no binding | no binding | no binding | no binding | – | – | – |
| Biotin-QGDPALQDAGDSSRKEYFI (also called GC) [Glycophorin C C-terminal peptide AA37L] | – | no binding | – | no binding | no binding | no binding | – | no binding | no binding | binds | binds |
